Reference: PMC4192540, “Targeted In Vivo Inhibition of Specific Protein–Protein Interactions Using Recombinant Antibodies” (PLoS ONE, 2014)
Each block holds one binder with its values, some of them ahead of it.

How the values were obtained:
Conditions in all cases: partners not purified
[1] = molecular target: T1, ARABIDOPSIS … PHOSPHOTRANSFER PROTEIN 1, Gal4 activation domain fusion (Arabidopsis thaliana (Mouse-ear cress)., UniProt Q9ZNV9); assay: two-hybrid; recombinant antibodies as Gal4 DNA BD fusions (pGBKT7), AHP proteins as Gal4 AD fusions (pGADT7-DEST); S. cerevisiae PJ69-4A; growth after 3 days at 30°C on media lacking Leu, Trp and His or Ade; 1-5 mM 3-Amino-1,2,4-triazole for stringent selection
T1 construct: ARABIDOPSIS … PHOSPHOTRANSFER PROTEIN 1 (AHP1), A. thaliana; also called AHP1; source: yeast two-hybrid fusion (pGADT7-DEST, S. cerevisiae PJ69-4A)
T1 sequence (Q9ZNV9 whole entry, the tested form may be a part): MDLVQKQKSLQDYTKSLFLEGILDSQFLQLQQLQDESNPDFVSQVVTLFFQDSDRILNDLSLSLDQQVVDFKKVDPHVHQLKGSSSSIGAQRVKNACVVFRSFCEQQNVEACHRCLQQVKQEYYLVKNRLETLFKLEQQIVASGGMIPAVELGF

[2] = molecular target: T2, ARABIDOPSIS … PHOSPHOTRANSFER PROTEIN 4, Gal4 activation domain fusion (Arabidopsis thaliana (Mouse-ear cress)., UniProt Q9LU15); assay: as above
T2 construct: ARABIDOPSIS … PHOSPHOTRANSFER PROTEIN 4 (AHP4), A. thaliana; also called AHP4; source: yeast two-hybrid fusion (pGADT7-DEST, S. cerevisiae PJ69-4A)
T2 sequence (Q9LU15 whole entry, the tested form may be a part): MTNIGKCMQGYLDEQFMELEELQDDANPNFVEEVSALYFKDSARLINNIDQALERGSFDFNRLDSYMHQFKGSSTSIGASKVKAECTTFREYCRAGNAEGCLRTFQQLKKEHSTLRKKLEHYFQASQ

[3] = molecular target: T3, ARABIDOPSIS … PHOSPHOTRANSFER PROTEIN 3, Gal4 activation domain fusion (A. thaliana, UniProt Q9SAZ5); assay: as above
T3 construct: ARABIDOPSIS … PHOSPHOTRANSFER PROTEIN 3 (AHP3), A. thaliana; also called AHP3; source: yeast two-hybrid fusion (pGADT7-DEST, S. cerevisiae PJ69-4A)
T3 sequence (Q9SAZ5 whole entry, the tested form may be a part): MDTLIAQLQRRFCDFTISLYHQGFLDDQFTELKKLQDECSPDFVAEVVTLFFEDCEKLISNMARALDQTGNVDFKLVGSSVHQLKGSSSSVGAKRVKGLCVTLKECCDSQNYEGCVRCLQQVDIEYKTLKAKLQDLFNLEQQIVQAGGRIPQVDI

[4] = molecular target: T4, ARABIDOPSIS … PHOSPHOTRANSFER PROTEIN 6, Gal4 activation domain fusion (Arabidopsis thaliana (Mouse-ear cress)., UniProt Q9SSC9); assay: as above
T4 construct: ARABIDOPSIS … PHOSPHOTRANSFER PROTEIN 6 (AHP6), A. thaliana; also called AHP6; source: yeast two-hybrid fusion (pGADT7-DEST, S. cerevisiae PJ69-4A)
T4 sequence (Q9SSC9 whole entry, the tested form may be a part): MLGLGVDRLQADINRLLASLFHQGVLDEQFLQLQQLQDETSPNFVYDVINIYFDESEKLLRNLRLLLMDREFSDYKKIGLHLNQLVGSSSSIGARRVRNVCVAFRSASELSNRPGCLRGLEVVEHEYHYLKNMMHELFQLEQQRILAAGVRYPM

[5] = molecular target: T5, ARABIDOPSIS … PHOSPHOTRANSFER PROTEIN 5, Gal4 activation domain fusion (A. thaliana, UniProt Q8L9T7); assay: as above
T5 construct: ARABIDOPSIS … PHOSPHOTRANSFER PROTEIN 5 (AHP5), A. thaliana; also called AHP5; source: yeast two-hybrid fusion (pGADT7-DEST, S. cerevisiae PJ69-4A)
T5 sequence (Q8L9T7 whole entry, the tested form may be a part): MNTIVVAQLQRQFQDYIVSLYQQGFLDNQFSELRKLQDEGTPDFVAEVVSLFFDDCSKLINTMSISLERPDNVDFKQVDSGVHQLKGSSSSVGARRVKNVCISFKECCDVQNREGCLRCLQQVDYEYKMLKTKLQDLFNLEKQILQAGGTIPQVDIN

[6] = molecular target: T6, ARABIDOPSIS … PHOSPHOTRANSFER PROTEIN 2, Gal4 activation domain fusion (A. thaliana, UniProt Q9ZNV8); assay: as above
T6 construct: ARABIDOPSIS … PHOSPHOTRANSFER PROTEIN 2 (AHP2), A. thaliana; also called AHP2; source: yeast two-hybrid fusion (pGADT7-DEST, S. cerevisiae PJ69-4A)
T6 sequence (Q9ZNV8 whole entry, the tested form may be a part): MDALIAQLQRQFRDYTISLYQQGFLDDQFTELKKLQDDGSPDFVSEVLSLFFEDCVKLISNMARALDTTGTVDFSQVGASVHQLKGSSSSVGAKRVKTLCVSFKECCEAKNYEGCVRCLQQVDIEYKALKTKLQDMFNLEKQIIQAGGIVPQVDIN

[7] = molecular target: T7, recombinant ARABIDOPSIS … PHOSPHOTRANSFER PROTEIN 3 with 6x-His-tag (Arabidopsis thaliana (Mouse-ear cress)., UniProt Q9SAZ5); assay: far-Western, overlay or dot blot; total protein extracts of bacterially expressed AHP proteins separated by SDS-PAGE and blotted on PVDF; periplasmic extract with the scFv diluted 1:2 in blocking buffer (5% skimmed milk, TBS, 0.1% Tween-20), 1 h; detected by anti-c-myc-tag antibody
T7 construct: ARABIDOPSIS … PHOSPHOTRANSFER PROTEIN 3 (AHP3), A. thaliana; also called AHP3; AHP3 antigen; source: purified
T7 sequence (Q9SAZ5 whole entry): as the sequence (Q9SAZ5 whole entry, the tested form may be a part) above

AHP3:cYFP = molecular target: T8, AHP3:cYFP (Arabidopsis thaliana (Mouse-ear cress)., UniProt Q9SAZ5); assay: split reporter (BiFC, NanoBiT); bimolecular fluorescent complementation with split YFP in A. thaliana Col-0 mesophyll protoplasts, 16 h at room temperature, confocal microscopy
T8 construct: ARABIDOPSIS … PHOSPHOTRANSFER PROTEIN 3 (AHP3), A. thaliana; source: A. thaliana Col-0 mesophyll protoplasts, transfected; not shown: C-terminal fragment of YFP (cYFP), C-terminal, kept
T8 sequence (Q9SAZ5 whole entry, the tested form may be a part): as above

cYFP:CKI1 RD = molecular target: T9, cYFP:CKI1 RD (Arabidopsis thaliana, UniProt O22267); assay: as above
T9 construct: CYTOKININ INDEPENDENT … KINASE 1 (CKI1), A. thaliana, receiver domain; source: A. thaliana mesophyll protoplasts, co-transformed; not shown: C-terminal fragment of YFP (cYFP), N-terminal, kept
T9 sequence (O22267 whole entry, looked up, the tested form may be a part): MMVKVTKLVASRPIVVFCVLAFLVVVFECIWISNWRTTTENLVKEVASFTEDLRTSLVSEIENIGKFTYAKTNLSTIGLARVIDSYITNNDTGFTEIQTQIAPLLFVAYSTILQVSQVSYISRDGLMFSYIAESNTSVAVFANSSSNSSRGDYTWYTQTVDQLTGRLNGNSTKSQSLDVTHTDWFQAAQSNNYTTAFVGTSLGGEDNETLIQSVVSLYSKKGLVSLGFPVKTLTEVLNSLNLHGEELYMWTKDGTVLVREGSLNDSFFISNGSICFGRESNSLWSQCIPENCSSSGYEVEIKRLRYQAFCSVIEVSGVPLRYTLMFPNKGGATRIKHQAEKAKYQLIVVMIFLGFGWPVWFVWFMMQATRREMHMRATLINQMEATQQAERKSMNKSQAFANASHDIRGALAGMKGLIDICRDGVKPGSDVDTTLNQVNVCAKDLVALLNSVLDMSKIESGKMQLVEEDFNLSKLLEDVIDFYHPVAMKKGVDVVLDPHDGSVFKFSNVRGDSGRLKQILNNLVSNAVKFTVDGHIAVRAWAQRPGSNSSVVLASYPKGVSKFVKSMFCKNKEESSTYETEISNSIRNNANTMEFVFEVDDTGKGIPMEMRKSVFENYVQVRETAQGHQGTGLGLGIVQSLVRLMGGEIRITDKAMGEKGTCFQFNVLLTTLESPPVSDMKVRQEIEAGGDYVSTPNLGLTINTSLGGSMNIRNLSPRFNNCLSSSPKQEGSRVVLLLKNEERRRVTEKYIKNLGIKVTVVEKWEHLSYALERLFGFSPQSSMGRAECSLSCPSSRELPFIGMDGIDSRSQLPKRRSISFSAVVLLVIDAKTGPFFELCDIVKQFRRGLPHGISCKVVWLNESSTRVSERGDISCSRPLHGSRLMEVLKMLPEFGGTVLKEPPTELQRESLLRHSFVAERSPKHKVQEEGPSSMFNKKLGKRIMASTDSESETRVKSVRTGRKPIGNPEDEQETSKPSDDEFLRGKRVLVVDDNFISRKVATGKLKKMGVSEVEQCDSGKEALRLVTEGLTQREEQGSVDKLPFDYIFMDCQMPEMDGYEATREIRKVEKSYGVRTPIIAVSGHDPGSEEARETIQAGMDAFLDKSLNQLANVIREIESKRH

[8] = molecular target: T3, ARABIDOPSIS … PHOSPHOTRANSFER PROTEIN …; assay: two-hybrid; yeast three-hybrid: receiver domain as Gal4 BD fusion, AHP proteins as Gal4 AD fusions, scFv hB7A expressed ectopically from pY3HS or empty pY3HS; S. cerevisiae PJ69-4A; media lacking Leu, Trp, Ura and His or Ade, or with 1 mM 3-Amino-1,2,4-triazole

binding result [1]: no binding
binding result [2]: no binding
binding result [3]: binds
binding result [4]: no binding
binding result [5]: no binding
binding result [6]: no binding
B1: scFv hB7A, Gal4 DNA binding domain fusion (scFv, V domains shown)
VH: EVQLLESGGGLVQPGGSLRLSCAASGFTFSFYRMSWVRQAPGKGLEWVSAISGSGGSTYYADSVKGRFTISRDNSKNTLYLQMNSLRAEDTAVYYCAKRVLTFDYWGQGTLVTVSS
VL: DIQMTQSPSSLSASVGDRVTITCRASQSIRKRLNWYQQKPGKAPKLLIYAASSLQSGVPSRFSGSGSGTDFTLTISSLQPEDFATYYCQQSYSTPPTFGQGTKVEIK
notes: selected from Human Single Fold scFv Library A+B; cloned between NcoI and NotI of pGBKT7; source: yeast two-hybrid fusion (pGBKT7, S. cerevisiae PJ69-4A)

binding result [7]: binds
B2: scFv hB7A with C-terminal c-myc-tag (scFv, V domains shown)
VH: B1 VH
VL: B1 VL
notes: source: E. coli BL21(DE3), periplasmic extract; purified (ammonium sulfate, Protein L column); not shown: c-myc-tag, C-terminal, kept

binding result (AHP3:cYFP): binds
binding result (cYFP:CKI1 RD): no binding
B3: nYFP:scFv-hB7A (scFv, V domains shown)
VH: B1 VH
VL: B1 VL
notes: sub-cloned from pY3HS with BglII and EcoRI, so the StrepTag II of the cassette may be carried along (surmise); source: A. thaliana Col-0 mesophyll protoplasts, transfected; not shown: N-terminal fragment of YFP (nYFP), N-terminal, kept

binding result [8]: binds
B4: scFv hB7A, ectopic expression from pY3HS (scFv, V domains shown)
VH: B1 VH
VL: B1 VL
notes: source: S. cerevisiae PJ69-4A, ectopic expression from pY3HS

binding result (AHP3:cYFP): binds
B5: scFv-hB7A:nYFP (scFv, V domains shown)
VH: B1 VH
VL: B1 VL
notes: sub-cloned from pY3HS with BglII and EcoRI, so the StrepTag II of the cassette may be carried along (surmise); source: A. thaliana Col-0 mesophyll protoplasts, transfected; not shown: N-terminal fragment of YFP (nYFP), C-terminal, kept
